The text below walks through data of publication doi:10.1101/2024.12.09.627393 (bioRxiv, 2024).

Broadly, the EC50 is the midpoint of the concentration-response curve. A high value points to lower potency in that assay.

The target in this experiment is T1, histone H4K5acK8acK12acK16ac residues 1–23 peptide (dCypher) (UniProt P62805 2-24, acetyl-lysine at 5, 8, 12 and 16).
T1 construct: histone H4 residues 1-23; also called H4Tetra^ac
In words: AlphaScreen or HTRF; dCypher: GST-CECR2-BRD titrated against histone peptides (100 nM); glutathione Acceptor and streptavidin Donor beads; 50 mM Tris pH 7.5, 50 mM NaCl, 0.01% Tween-20, 0.01% BSA, 1 mM TCEP, 0.0004% Poly-L-Lysine; room temperature; relative EC50 (EC50^rel). The settings on record: both partners purified. (Alpha assays give light when donor and acceptor beads are brought close together.)

B1: GST-CECR2-BRD (GST tag retained, for dCypher assays) (domain or fragment)
chain: not shown
notes: human CECR2 bromodomain, amino acids 424-538 of UniProt Q9BXF3-1, codon optimized for E. coli, in pGEX-6P-1; PreScission Protease site between GST and the bromodomain; source: E. coli BL21(DE3) pLysS, purified (glutathione agarose, eluted with reduced glutathione, dialysed); not shown: GST, N-terminal, kept
B1 registered an EC50 of 7.2 nM.
